Laboratory results from publication PMC7230020.

Target: activated RecA (RecA*), E. coli RecA polymerised on ssDNA with ATPγS (E. coli) (UniProt P0A7G6)
Test: fluorescence polarisation

Chain of activated RecA (RecA*), E. coli RecA polymerised on ssDNA with ATPγS (E. coli) (P0A7G6 whole entry): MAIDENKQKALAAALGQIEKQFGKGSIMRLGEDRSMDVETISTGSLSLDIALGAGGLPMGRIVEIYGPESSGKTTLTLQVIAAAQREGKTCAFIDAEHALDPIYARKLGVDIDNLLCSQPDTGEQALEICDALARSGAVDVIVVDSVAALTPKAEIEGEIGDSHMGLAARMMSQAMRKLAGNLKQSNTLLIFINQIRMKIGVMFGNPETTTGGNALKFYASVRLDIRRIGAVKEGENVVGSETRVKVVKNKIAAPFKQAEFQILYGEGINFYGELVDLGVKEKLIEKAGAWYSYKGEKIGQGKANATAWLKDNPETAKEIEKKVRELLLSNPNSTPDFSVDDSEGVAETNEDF

## LexA G80P, full-length cleavage loop variant (from UniProt P0A7C2 1-202) (natural protein)
  fold decrease in apparent affinity for RecA* against LexA-S119A: > 10 fold

## LexA V82M, full-length cleavage loop variant (from UniProt P0A7C2 1-202) (natural protein)
  fold decrease in apparent affinity for RecA* against LexA-S119A: > 10 fold
